B1: SEQ ID NO: 125: Pseudomonas aeruginosa aminotransferase (protein, listed as Pseudomonas aeruginosa)
chain: MNARLHATSPLGDADLVRADQAHYMHGYHVFDDHRVNGSLNIAAGDGAYIYDTAGNRYLDAVGGMWCTNIGLGREEMARTVAEQTRLLAYSNPFCDMANPRAIELCRKLAELAPGDLDHVFLTTGGSTAVDTAIRLMHYYQNCRGKRAKKHVITRINAYHGSTFLGMSLGGKSADRPAEFDFLDERIHHLACPYYYRAPEGLGEAEFLDGLVDEFERKILELGADRVGAFISEPVFGSGGVIVPPAGYHRRMWELCQRYDVLYISDEVVTSFGRLGHFFASQAVFGVQPDIILTAKGLTSGYQPLGACIFSRRIWEVIAEPDKGRCFSHGFTYSGHPVACAAALKNIEIIEREGLLAHADEVGRYFEERLQSLRDLPIVGDVRGMRFMACVEFVADKASKALFPESLNIGEWVHLRAQKRGLLVRPIVHLNVMSPPLILTREQVDTVVRVLRESIEETVEDLVRAGHR
modifications: Pseudomonas aeruginosa (strain ATCC 15692 / DSM 22644 / CIP 104116 / JCM 14847 / LMG 12228 / 1C / PRS 101 / PAO1)
notes: Pseudomonas aeruginosa aminotransferase
B2: SEQ ID NO: 27: Mycobacterium smegmatis fatty-acid-CoA ligase with carboxylate reductase activity (protein)
chain: MTIETREDRFNRRIDHLFETDPQFAAARPDEAISAAAADPELRLPAAVKQILAGYADRPALGKRAVEFVTDEEGRTTAKLLPRFDTITYRQLAGRIQAVTNAWHNHPVNAGDRVAILGFTSVDYTTIDIALLELGAVSVPLQTSAPVAQLQPIVAETEPKVIASSVDFLADAVALVESGPAPSRLVVFDYSHEVDDQREAFEAAKGKLAGTGVVVETITDALDRGRSLADAPLYVPDEADPLTLLIYTSGSTGTPKGAMYPESKTATMWQAGSKARWDETLGVMPSITLNFMPMSHVMGRGILCSTLASGGTAYFAARSDLSTFLEDLALVRPTQLNFVPRIWDMLFQEYQSRLDNRRAEGSEDRAEAAVLEEVRTQLLGGRFVSALTGSAPISAEMKSWVEDLLDMHLLEGYGSTEAGAVFIDGQIQRPPVIDYKLVDVPDLGYFATDRPYPRGELLVKSEQMFPGYYKRPEITAEMFDEDGYYRTGDIVAELGPDHLEYLDRRNNVLKLSQGEFVTVSKLEAVFGDSPLVRQIYVYGNSARSYLLAVVVPTEEALSRWDGDELKSRISDSLQDAARAAGLQSYEIPRDFLVETTPFTLENGLLTGIRKLARPKLKAHYGERLEQLYTDLAEGQANELRELRRNGADRPVVETVSRAAVALLGASVTDLRSDAHFTDLGGDSLSALSFSNLLHEIFDVDVPVGVIVSPATDLAGVAAYIEGELRGSKRPTYASVHGRDATEVRARDLALGKFIDAKTLSAAPGLPRSGTEIRTVLLTGATGFLGRYLALEWLERMDLVDGKVICLVRARSDDEARARLDATFDTGDATLLEHYRALAADHLEVIAGDKGEADLGLDHDTWQRLADTVDLIVDPAALVNHVLPYSQMFGPNALGTAELIRIALTTTIKPYVYVSTIGVGQGISPEAFVEDADIREISATRRVDDSYANGYGNSKWAGEVLLREAHDWCGLPVSVFRCDMILADTTYSGQLNLPDMFTRLMLSLVATGIAPGSFYELDADGNRQRAHYDGLPVEFIAEAISTIGSQVTDGFETFHVMNPYDDGIGLDEYVDWLIEAGYPVHRVDDYATWLSRFETALRALPERQRQASLLPLLHNYQQPSPPVCGAMAPTDRFRAAVQDAKIGPDKDIPHVTADVIVKYISNLQMLGLL
modifications: Mycobacterium smegmatis (strain ATCC 700084 / mc(2)155)
B3: SEQ ID NO: 119: Escherichia coli aminotransferase, gene product of ygjG (protein)
chain: MNRLPSSASALACSAHALNLIEKRTLDHEEMKALNREVIEYFKEHVNPGFLEYRKSVTAGGDYGAVEWQAGSLNTLVDTQGQEFIDCLGGFGIFNVGHRNPVVVSAVQNQLAKQPLHSQELLDPLRAMLAKTLAALTPGKLKYSFFCNSGTESVEAALKLAKAYQSPRGKFTFIATSGAFHGKSLGALSATAKSTFRKPFMPLLPGFRHVPFGNIEAMRTALNECKKTGDDVAAVILEPIQGEGGVILPPPGYLTAVRKLCDEFGALMILDEVQTGMGRTGKMFACEHENVQPDILCLAKALGGGVMPIGATIATEEVFSVLFDNPFLHTTTFGGNPLACAAALATINVLLEQNLPAQAEQKGDMLLDGFRQLAREYPDLVQEARGKGMLMAIEFVDNEIGYNFASEMFRQRVLVAGTLNNAKTIRIEPPLTLTIEQCELVIKAARKALAAMRVSVEEA
modifications: Escherichia coli (strain K12)
notes: Escherichia coli aminotransferase, gene product of ygjG
B4: SEQ ID NO: 25: Mycobacterium marinum carboxylate reductase (protein)
chain: MSPITREERLERRIQDLYANDPQFAAAKPATAITAAIERPGLPLPQIIETVMTGYADRPALAQRSVEFVTDAGTGHTTLRLLPHFETISYGELWDRISALADVLSTEQTVKPGDRVCLLGFNSVDYATIDMTLARLGAVAVPLQTSAAITQLQPIVAETQPTMIAASVDALADATELALSGQTATRVLVFDHHRQVDAHRAAVESARERLAGSAVVETLAEAIARGDVPRGASAGSAPGTDVSDDSLALLIYTSGSTGAPKGAMYPRRNVATFWRKRTWFEGGYEPSITLNFMPMSHVMGRQILYGTLCNGGTAYFVAKSDLSTLFEDLALVRPTELTFVPRVWDMVFDEFQSEVDRRLVDGADRVALEAQVKAEIRNDVLGGRYTSALTGSAPISDEMKAWVEELLDMHLVEGYGSTEAGMILIDGAIRRPAVLDYKLVDVPDLGYFLTDRPHPRGELLVKTDSLFPGYYQRAEVTADVFDADGFYRTGDIMAEVGPEQFVYLDRRNNVLKLSQGEFVTVSKLEAVFGDSPLVRQIYIYGNSARAYLLAVIVPTQEALDAVPVEELKARLGDSLQEVAKAAGLQSYEIPRDFIIETTPWTLENGLLTGIRKLARPQLKKHYGELLEQIYTDLAHGQADELRSLRQSGADAPVLVTVCRAAAALLGGSASDVQPDAHFTDLGGDSLSALSFTNLLHEIFDIEVPVGVIVSPANDLQALADYVEAARKPGSSRPTFASVHGASNGQVTEVHAGDLSLDKFIDAATLAEAPRLPAANTQVRTVLLTGATGFLGRYLALEWLERMDLVDGKLICLVRAKSDTEARARLDKTFDSGDPELLAHYRALAGDHLEVLAGDKGEADLGLDRQTWQRLADTVDLIVDPAALVNHVLPYSQLFGPNALGTAELLRLALTSKIKPYSYTSTIGVADQIPPSAFTEDADIRVISATRAVDDSYANGYSNSKWAGEVLLREAHDLCGLPVAVFRCDMILADTTWAGQLNVPDMFTRMILSLAATGIAPGSFYELAADGARQRAHYDGLPVEFIAEAISTLGAQSQDGFHTYHVMNPYDDGIGLDEFVDWLNESGCPIQRIADYGDWLQRFETALRALPDRQRHSSLLPLLHNYRQPERPVRGSIAPTDRFRAAVQEAKIGPDKDIPHVGAPIIVKYVSDLRLLGLL
modifications: Mycobacterium marinum (strain ATCC BAA-535 / M)
notes: Mycobacterium marinum carboxylate reductase

Columns and labels:
Assay type in all cases: biochemical
[1] = Aminotransferase activity, heptane-1,7-diamine to 7-aminoheptanal, L-alanine formation by RP-HPLC; conditions: cell free extract, 10 mM substrate, 25° C., 4 h, against empty vector control, FIG. 50
Description: A sequence encoding an N-terminal His-tag was added to the Chromobacterium violaceum, Pseudomonas aeruginosa, Pseudomonas syringae, Rhodobacter sphaeroides, Escherichia coli, and Vibrio fluvialis genes encoding the aminotransferases of SEQ ID NOs: 116 (GenBank Accession No. AAQ59697.1), 119 (RefSeq Accession No. NP_417544.5), 125 (GenBank Accession No. AAGO8191.1), 126 (GenBank Accession No. AAY39893.1), 127 (GenBank Accession No. ABA81135.1), and 128 (GenBank Accession No. AEA39183.1), respectively such that N-terminal HIS tagged aminotransferases could be produced. The modified genes were cloned into a pET21a expression vector under the T7 promoter. Each expression vector was transformed into a BL21[DE3] E. coli host. Each resulting recombinant E. coli strain were cultivated at 37° C. in a 250 mL shake flask culture containing 50 mL LB media and antibiotic selection pressure, with shaking at 230 rpm. Each culture was induced overnight at 16° C. using 1 mM IPTG.
The pellet from each induced shake flask culture was harvested via centrifugation. Each pellet was resuspended and lysed via sonication. The cell debris was separated from the supernatant via centrifugation and the cell free extract was used immediately in enzyme activity assays.
Enzyme activity assays in the reverse direction (i.e., heptane-1,7-diamine to 7-aminoheptanal) were performed in a buffer composed of a final concentration of 50 mM HEPES buffer (pH=7.5), 10 mM heptane-1,7-diamine, 10 mM pyruvate, and 100 μM pyridoxyl 5′ phosphate. Each enzyme activity assay reaction was initiated by adding cell free extract of the aminotransferase gene product or the empty vector control to the assay buffer containing the heptane-1,7-diamine and then incubated at 25° C. for 4 h, with shaking at 250 rpm. The formation of L-alanine was quantified via RP-HPLC.

[2] = Aminotransferase activity, N7-acetyl-1,7-diaminoheptane to N7-acetyl-7-aminoheptanal, L-alanine formation by RP-HPLC; conditions: cell free extract, 10 mM substrate, 25° C., 4 h, against empty vector control, FIG. 51
Description: The activity of the N-terminal His-tagged aminotransferases of SEQ ID NOs: 116 (GenBank Accession No. AAQ59697.1), 119 (RefSeq Accession No. NP_417544.5), 125 (GenBank Accession No. AAGO8191.1), 126 (GenBank Accession No. AAY39893.1), 127 (GenBank Accession No. ABA81135.1), and 128 (GenBank Accession No. AEA39183.1) (see Example 6) for converting N7-acetyl-1,7-diaminoheptane to N7-acetyl-7-aminoheptanal was assayed using a buffer composed of a final concentration of 50 mM HEPES buffer (pH=7.5), 10 mM N7-acetyl-1,7-diaminoheptane, 10 mM pyruvate and 100 μM pyridoxyl 5′ phosphate. Each enzyme activity assay reaction was initiated by adding a cell free extract of the aminotransferases or the empty vector control to the assay buffer containing the N7-acetyl-1,7-diaminoheptane then incubated at 25° C. for 4 h, with shaking at 250 rpm. The formation of L-alanine was quantified via RP-HPLC.

[3] = Carboxylate reductase activity, 7-hydroxyheptanoate to 7-hydroxyheptanal, NADPH consumption at 340 nm; conditions: enhanced by gene product of sfp, 20 min, against empty vector control, FIG. 44
Description: A sequence encoding a His-tag was added to the genes from Mycobacterium marinum, Mycobacterium smegmatis, Segniliparus rugosus, Mycobacterium smegmatis, Mycobacterium massiliense, and Segniliparus rotundus that encode the carboxylate reductases of SEQ ID NOs: 25 (GenBank Accession No. ACC40567.1), 27 (GenBank Accession No. ABK75684.1), 29 (GenBank Accession No. ABK71854.1), 31 (GenBank Accession No. EFV11917.1), 37 (GenBank Accession No. EIV11143.1), and 38 (GenBank Accession No. ADG98140.1) such that N-terminal HIS tagged carboxylate reductases could be produced. Each of the modified genes was cloned into a pET Duet expression vector alongside a sfp gene encoding a His-tagged phosphopantetheine transferase from Bacillus subtilis, both under control of the T7 promoter.
Each expression vector was transformed into a BL21[DE3] E. coli host and the resulting recombinant E. coli strains were cultivated at 37° C. in a 250 mL shake flask culture containing 50 mL LB media and antibiotic selection pressure, with shaking at 230 rpm. Each culture was induced overnight at 37° C. using an auto-induction media.
The pellet from each induced shake flask culture was harvested via centrifugation. Each pellet was resuspended and lysed via sonication. The cell debris was separated from the supernatant via centrifugation. The carboxylate reductases and phosphopantetheine transferase were purified from the supernatant using Ni-affinity chromatography, diluted 10-fold into 50 mM HEPES buffer (pH=7.5) and concentrated via ultrafiltration.
Enzyme activity (i.e., 7-hydroxyheptanoate to 7-hydroxyheptanal) assays were performed in triplicate in a buffer composed of a final concentration of 50 mM HEPES buffer (pH=7.5), 2 mM […], 10 mM MgCl2, 1 mM ATP, and 1 mM NADPH. Each enzyme activity assay reaction was initiated by adding purified carboxylate reductase and phosphopantetheine transferase or the empty vector control to the assay buffer containing the 7-hydroxyheptanoate and then incubated at room temperature for 20 min. The consumption of NADPH was monitored by absorbance at 340 nm.

Molecule | acceptance of heptane-1,7-diamine as substrate, forming 7-aminoheptanal [1] | acceptance of N7-acetyl-1,7-diaminoheptane as substrate, forming N7-acetyl-7-aminoheptanal [2] | acceptance of 7-hydroxyheptanoate as substrate, forming 7-hydroxyheptanal [3]
B1 | accepted heptane-1,7-diamine as substrate | accepted N7-acetyl-1,7-diaminoheptane as a substrate | –
B2 | – | – | accepted 7-hydroxyheptanoate as substrate
B3 | accepted heptane-1,7-diamine as substrate | accepted N7-acetyl-1,7-diaminoheptane as a substrate | –
B4 | – | – | accepted 7-hydroxyheptanoate as substrate

Reference: patent publication US10801046B2, “Methods and materials for biosynthesizing multifunctional, multivariate molecules via carbon chain modification” (INVISTA NORTH AMERICA S.A.R.L., priority 2016, dated 2020)
